According to article PMC8596708:

Substrate: CNC(=O)Oc1ccc2[nH]cc(CCNC(C)=O)c2c1
Assay: MTase-Glo bioluminescence assay
Assay type: biochemical, Streptomyces griseofuscus
Conditions: […] SAM; optimized conditions ([…] °C, pH […] KPi stated as optimum)

B1: PsmD (Streptomyces griseofuscus) (protein)
chain: MMQGQPHQDAGMPEPYAATADVYDRLVDYAIAEWGECPRPQMADFVEQAWAARGHRVRRVLELCCGTGLMTEQLVRRGYEVTAVDRSETMLALAKQRVGGAADFHQIELPAPLPDGADAVVCTAAAFNYQASARSLGETLRAVATVLPAGATFVFDIETAALLKGHWGNRVWAADEGDLAFIWDFTSEPDTTYCDVHYTQFTRHEAGADAYTGVREVHRLYAFDHDTVRAQARAAGFAQAEVFDNYTERPATDTTRYETWVLTRDER
Protein B1 has a Km of 11.3 µM.
